According to the supplement of paper PMC10065799, “High-throughput profiling of sequence recognition by tyrosine kinases and SH2 domains using bacterial peptide display” (eLife, 2023):

Assays:
AncSZ = assay: phosphorylation enrichment, bacterial display (enrichment ratio); higher = better substrate or ligand; peptides without Tyr show the background
EPHB1 = EPHB1 (UniProt P54762); assay: as above
EPHB2 = EPHB2 (UniProt P29323); assay: as above
FGFR1 = FGFR1 (UniProt P11362); assay: as above
FGFR3 = FGFR3 (UniProt P22607); assay: as above
Fer (mouse) = assay: as above
Fes = Fes (UniProt P07332); assay: as above
Fyn = Fyn (UniProt P06241); assay: as above
Hck = Hck (UniProt P08631); assay: as above
Jak2 = Jak2 (UniProt O60674); assay: as above
MERTK = MERTK (UniProt Q12866); assay: as above
c-Abl (mouse) = assay: as above
c-Src = assay: as above
Grb2 SH2 = Grb2 SH2 (UniProt P62993); assay: SH2 binding enrichment of the phosphorylated peptide, bacterial display (enrichment ratio); higher = better substrate or ligand; peptides without Tyr show the background
SHP2-C SH2 = assay: as above
c-Src SH2 = assay: as above
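For SH2 binding enrichment of the phosphorylated peptide, bacterial display in this document: peptide library displayed on the E. coli surface as eCPX fusions, selected cells deep-sequenced, score is each peptide's frequency after selection divided by its frequency in the input.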
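For phosphorylation enrichment, bacterial display in this document: 11-residue human phosphosite peptides and single-mutation variants displayed on the E. coli surface, counted by deep sequencing, each peptide's frequency after selection divided by its frequency in the unselected input library; frequency after pTyr selection over input frequency; kinase dosed for 20-30% of maximal phosphorylation in three min.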

EPHB1, sequence (P54762 whole entry, looked up): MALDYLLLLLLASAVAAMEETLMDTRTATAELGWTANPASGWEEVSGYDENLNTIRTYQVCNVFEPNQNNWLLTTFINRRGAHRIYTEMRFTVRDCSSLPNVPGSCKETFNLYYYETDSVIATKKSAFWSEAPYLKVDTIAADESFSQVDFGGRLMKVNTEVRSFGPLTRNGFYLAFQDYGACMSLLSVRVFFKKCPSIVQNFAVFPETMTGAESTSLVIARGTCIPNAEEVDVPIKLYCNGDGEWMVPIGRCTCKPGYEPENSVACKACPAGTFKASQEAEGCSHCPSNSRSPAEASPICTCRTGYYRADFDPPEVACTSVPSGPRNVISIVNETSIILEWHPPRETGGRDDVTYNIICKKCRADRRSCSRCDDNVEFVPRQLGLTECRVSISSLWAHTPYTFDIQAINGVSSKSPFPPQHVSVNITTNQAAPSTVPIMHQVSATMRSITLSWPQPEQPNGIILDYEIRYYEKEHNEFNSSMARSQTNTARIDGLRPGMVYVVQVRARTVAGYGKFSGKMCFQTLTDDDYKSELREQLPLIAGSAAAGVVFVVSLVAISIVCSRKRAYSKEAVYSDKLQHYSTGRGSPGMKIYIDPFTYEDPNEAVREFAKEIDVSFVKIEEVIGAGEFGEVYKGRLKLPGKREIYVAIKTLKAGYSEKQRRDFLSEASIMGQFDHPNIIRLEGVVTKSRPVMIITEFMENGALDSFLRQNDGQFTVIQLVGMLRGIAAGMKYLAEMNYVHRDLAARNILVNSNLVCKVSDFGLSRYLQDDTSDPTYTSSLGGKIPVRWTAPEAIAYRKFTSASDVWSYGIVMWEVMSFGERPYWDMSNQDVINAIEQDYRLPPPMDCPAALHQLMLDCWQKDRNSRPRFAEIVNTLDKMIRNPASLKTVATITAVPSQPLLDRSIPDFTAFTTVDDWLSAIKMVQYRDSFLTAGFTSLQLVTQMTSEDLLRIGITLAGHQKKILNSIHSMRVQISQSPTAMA
EPHB2, sequence (P29323 whole entry, looked up): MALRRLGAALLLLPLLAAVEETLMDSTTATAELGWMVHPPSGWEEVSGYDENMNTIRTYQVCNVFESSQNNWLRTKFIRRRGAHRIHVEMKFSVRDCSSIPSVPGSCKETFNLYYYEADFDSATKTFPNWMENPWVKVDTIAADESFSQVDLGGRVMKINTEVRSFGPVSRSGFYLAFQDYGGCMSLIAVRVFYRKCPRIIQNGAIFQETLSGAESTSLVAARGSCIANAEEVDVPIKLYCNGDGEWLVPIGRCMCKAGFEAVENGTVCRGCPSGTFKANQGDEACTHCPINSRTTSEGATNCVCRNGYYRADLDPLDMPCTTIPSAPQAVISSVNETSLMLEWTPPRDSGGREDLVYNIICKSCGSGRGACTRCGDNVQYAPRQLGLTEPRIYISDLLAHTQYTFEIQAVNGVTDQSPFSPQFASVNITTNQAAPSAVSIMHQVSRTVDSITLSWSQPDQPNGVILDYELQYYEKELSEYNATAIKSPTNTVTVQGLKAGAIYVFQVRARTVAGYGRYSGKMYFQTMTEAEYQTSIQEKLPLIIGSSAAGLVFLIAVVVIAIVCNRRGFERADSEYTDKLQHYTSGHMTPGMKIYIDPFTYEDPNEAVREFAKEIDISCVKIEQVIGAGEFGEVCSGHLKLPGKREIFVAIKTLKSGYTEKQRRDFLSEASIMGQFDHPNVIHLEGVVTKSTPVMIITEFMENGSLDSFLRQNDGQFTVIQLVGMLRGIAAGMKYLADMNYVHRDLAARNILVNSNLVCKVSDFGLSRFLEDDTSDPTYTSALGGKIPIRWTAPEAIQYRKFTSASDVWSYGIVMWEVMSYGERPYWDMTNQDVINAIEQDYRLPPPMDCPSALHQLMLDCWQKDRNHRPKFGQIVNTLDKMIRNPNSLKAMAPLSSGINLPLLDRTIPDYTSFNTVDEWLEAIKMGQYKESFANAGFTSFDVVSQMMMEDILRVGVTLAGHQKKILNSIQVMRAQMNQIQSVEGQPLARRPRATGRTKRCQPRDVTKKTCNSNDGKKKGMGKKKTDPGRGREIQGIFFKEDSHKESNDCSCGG
MERTK, sequence (Q12866 whole entry, looked up): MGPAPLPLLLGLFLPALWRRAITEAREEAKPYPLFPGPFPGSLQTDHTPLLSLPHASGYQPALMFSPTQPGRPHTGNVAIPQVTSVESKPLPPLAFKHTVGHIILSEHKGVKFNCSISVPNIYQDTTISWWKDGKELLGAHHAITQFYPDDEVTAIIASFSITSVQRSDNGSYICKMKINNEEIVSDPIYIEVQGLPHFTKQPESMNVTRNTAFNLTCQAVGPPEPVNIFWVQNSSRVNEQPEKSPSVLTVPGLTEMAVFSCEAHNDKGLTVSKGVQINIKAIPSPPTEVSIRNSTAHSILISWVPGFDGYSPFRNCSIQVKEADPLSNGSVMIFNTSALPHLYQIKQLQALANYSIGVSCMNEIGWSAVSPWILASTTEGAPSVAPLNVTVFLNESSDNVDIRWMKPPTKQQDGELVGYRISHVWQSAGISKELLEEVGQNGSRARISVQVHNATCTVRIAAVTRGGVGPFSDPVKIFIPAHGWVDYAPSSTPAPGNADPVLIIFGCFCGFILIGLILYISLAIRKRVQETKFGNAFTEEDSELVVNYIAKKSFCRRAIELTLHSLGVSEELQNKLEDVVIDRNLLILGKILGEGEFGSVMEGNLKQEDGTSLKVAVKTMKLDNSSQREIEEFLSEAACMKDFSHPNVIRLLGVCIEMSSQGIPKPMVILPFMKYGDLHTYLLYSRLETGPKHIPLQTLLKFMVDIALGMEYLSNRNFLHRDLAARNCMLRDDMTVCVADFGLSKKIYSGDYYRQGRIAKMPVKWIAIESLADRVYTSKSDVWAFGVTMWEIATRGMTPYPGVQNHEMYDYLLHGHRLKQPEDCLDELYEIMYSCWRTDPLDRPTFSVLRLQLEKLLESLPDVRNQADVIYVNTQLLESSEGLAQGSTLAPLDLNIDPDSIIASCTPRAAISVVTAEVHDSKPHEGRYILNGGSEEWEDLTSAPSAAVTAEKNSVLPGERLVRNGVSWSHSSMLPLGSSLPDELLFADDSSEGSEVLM
Fyn, sequence (P06241 whole entry, looked up): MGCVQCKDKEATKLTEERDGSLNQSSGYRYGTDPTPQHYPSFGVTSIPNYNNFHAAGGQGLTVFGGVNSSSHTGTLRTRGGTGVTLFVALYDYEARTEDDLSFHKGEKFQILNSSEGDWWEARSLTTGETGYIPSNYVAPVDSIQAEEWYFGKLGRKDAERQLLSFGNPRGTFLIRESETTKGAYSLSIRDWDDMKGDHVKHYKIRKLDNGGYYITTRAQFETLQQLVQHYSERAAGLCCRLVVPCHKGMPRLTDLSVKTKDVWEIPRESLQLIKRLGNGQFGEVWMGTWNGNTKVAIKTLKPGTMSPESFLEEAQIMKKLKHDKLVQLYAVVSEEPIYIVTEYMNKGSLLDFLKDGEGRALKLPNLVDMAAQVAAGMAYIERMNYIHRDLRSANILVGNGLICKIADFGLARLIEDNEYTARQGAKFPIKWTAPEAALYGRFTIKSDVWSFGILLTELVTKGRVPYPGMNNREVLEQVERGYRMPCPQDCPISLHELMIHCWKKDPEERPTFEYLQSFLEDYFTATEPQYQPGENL
FGFR3, sequence (P22607 whole entry, looked up): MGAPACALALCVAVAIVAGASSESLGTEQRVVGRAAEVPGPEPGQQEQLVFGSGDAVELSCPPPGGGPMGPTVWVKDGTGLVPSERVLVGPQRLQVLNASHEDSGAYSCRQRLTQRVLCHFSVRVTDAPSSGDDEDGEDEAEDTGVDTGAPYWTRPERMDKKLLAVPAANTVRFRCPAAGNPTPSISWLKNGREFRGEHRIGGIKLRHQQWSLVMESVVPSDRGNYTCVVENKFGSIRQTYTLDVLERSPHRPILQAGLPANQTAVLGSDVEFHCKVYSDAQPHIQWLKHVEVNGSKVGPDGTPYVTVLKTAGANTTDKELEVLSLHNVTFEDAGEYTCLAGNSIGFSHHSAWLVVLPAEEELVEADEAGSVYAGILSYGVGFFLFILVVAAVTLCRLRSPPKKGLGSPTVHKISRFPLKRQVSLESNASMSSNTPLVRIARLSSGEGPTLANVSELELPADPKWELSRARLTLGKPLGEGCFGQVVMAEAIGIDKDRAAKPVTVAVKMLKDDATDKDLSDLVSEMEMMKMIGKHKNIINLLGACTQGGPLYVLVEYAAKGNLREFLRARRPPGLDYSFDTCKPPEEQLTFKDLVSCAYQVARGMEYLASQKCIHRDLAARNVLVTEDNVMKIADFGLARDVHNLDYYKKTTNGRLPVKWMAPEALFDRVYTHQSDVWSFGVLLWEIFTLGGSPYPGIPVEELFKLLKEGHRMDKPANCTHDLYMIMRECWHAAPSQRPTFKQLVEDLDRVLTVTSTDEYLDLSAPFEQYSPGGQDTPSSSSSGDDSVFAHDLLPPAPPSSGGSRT
Hck, sequence (P08631 whole entry, looked up): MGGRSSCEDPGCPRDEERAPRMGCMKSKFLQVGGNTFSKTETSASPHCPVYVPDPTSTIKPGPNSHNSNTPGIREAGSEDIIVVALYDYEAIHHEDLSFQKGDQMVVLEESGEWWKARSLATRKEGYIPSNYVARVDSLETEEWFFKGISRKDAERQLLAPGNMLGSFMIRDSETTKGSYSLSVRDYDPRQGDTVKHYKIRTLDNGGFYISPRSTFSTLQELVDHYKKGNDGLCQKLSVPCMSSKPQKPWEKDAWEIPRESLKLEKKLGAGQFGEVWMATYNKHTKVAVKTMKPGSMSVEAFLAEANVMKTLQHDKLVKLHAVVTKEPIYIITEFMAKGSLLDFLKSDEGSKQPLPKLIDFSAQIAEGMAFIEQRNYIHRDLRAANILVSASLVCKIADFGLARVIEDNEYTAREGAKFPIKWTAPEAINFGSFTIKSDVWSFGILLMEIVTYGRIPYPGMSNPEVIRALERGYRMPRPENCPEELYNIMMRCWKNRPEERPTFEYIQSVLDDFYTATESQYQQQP

Row | Sequence | SH2 binding enrichment (Grb2 SH2) | SH2 binding enrichment (SHP2-C SH2) | SH2 binding enrichment (c-Src SH2) | phosphorylation enrichment (AncSZ) | phosphorylation enrichment (EPHB1) | phosphorylation enrichment (EPHB2) | phosphorylation enrichment (FGFR1) | phosphorylation enrichment (FGFR3) | phosphorylation enrichment (Fer (mouse)) | phosphorylation enrichment (Fes) | phosphorylation enrichment (Fyn) | phosphorylation enrichment (Hck) | phosphorylation enrichment (Jak2) | phosphorylation enrichment (MERTK) | phosphorylation enrichment (c-Abl (mouse)) | phosphorylation enrichment (c-Src)
1 | RGKEPYTKKAL [TTC21B_Y160] | 0.785 | 0.78 | 0.651 | 0.815 | 0.596 | 0.698 | 0.568 | 0.522 | 0.299 | 1.01 | 0.438 | 0.436 | 0.773 | 0.724 | 0.933 | 0.829
2 | RGSQQYRALTV [TUBB8_Y281] | 1.04 | 0.919 | 0.535 | 0.862 | 0.368 | 0.518 | 0.428 | 0.364 | 0.584 | 0.633 | 0.325 | 0.866 | 0.77 | 0.516 | 0.84 | 0.594
3 | RIGRKYKRVRF [F8_Y442_K444R] | 0.554 | 0.533 | 0.302 | 2.77 | 0.967 | 1.65 | 1.13 | 1.55 | 1.45 | 3.31 | 1.35 | 1.23 | 2.55 | 2.74 | 2.59 | 3.73
4 | RKLVDYDSAQH [BIN1_Y150_R154Q] | 1.1 | 0.607 | 0.541 | 0.548 | 0.648 | 0.796 | 0.425 | 1.28 | 0.737 | 0.988 | 0.4 | 0.668 | 0.56 | 0.565 | 0.871 | 0.541
5 | RKVAQYMLENE [SLC16A6_Y224_E221V] | 0.697 | 0.617 | 0.697 | 0.876 | 0.612 | 0.901 | 0.648 | 0.933 | 0.861 | 0.859 | 0.716 | 0.718 | 1.03 | 0.465 | 0.506 | 0.389
6 | RLLRGYRQDAY [HLA-A_Y137_F133L] | 0.638 | 0.593 | 0.437 | 0.985 | 0.374 | 0.611 | 0.608 | 0.519 | 0.653 | 0.777 | 0.769 | 0.645 | 0.802 | 0.694 | 0.67 | 0.537
7 | RLPNGYGLAYR [DLK1_Y262_S260N] | 1.15 | 0.55 | 0.656 | 0.706 | 0.416 | 0.528 | 0.663 | 0.573 | 0.504 | 0.737 | 0.961 | 0.571 | 0.509 | 0.453 | 0.413 | 0.423
8 | RLSPEYKQNEI [GJB1_Y243] | 0.749 | 0.933 | 0.817 | 0.82 | 0.468 | 0.555 | 0.481 | 0.446 | 0.491 | 0.682 | 0.403 | 0.584 | 0.59 | 0.621 | 0.821 | 0.72
9 | RMGNLYDIDEN [GRIN2A_Y1246_D1251N] | 0.805 | 0.613 | 1.2 | 1.52 | 1.16 | 1.44 | 0.876 | 1.22 | 0.864 | 2.16 | 4.25 | 1.86 | 3.11 | 1.03 | 2.11 | 3.1
10 | RPAPQYPHQVP [ADAM12_Y895] | 1.06 | 0.687 | 0.647 | 1.3 | 0.572 | 0.463 | 0.608 | 1.03 | 0.685 | 1.02 | 0.715 | 0.582 | 1.36 | 0.718 | 1.01 | 0.819
11 | RPCVVYGGADI [DDX3X_Y301] | 0.823 | 0.773 | 0.6 | 1 | 0.901 | 0.543 | 0.715 | 0.735 | 0.653 | 1.02 | 1.07 | 1.12 | 0.668 | 0.642 | 0.703 | 1.44
12 | RPGSGYTNIMR [PKLR_Y564] | 1.32 | 1.43 | 2.58 | 0.64 | 0.345 | 0.588 | 0.439 | 0.415 | 0.429 | 0.586 | 0.919 | 0.784 | 0.532 | 0.579 | 0.723 | 0.707
13 | RPPFTYATLIH [FOXP3_Y342_R347H] | 1.08 | 32.6 | 1.98 | 1.07 | 1.87 | 0.753 | 0.641 | 1.16 | 0.766 | 1.22 | 1.68 | 2.06 | 0.933 | 1.26 | 0.922 | 3.31
14 | RPSELYFSKIS [SMG1_Y2253_G2258S_YF] | 0.741 | 0.702 | 0.758 | 0.933 | 2 | 1.05 | 1.22 | 1.1 | 0.724 | 1.4 | 1.4 | 2.85 | 1.06 | 0.886 | 0.834 | 0.691
15 | RQRTAYFSLNT [CDH1_Y68_D72N] | 0.901 | 14.9 | 0.871 | 0.794 | 0.661 | 0.68 | 0.586 | 0.745 | 0.552 | 1.1 | 0.699 | 0.423 | 1.34 | 0.566 | 0.77 | 0.667
16 | RRDRDYTNLPS [CSF1R_Y923_E920D] | 1.87 | 0.677 | 1.45 | 1.15 | 0.604 | 0.682 | 0.815 | 0.696 | 0.64 | 0.893 | 0.551 | 0.673 | 0.639 | 0.442 | 1.65 | 0.545
17 | RREWYYEVIIV [BACE1_Y260] | 0.873 | 0.75 | 0.545 | 0.874 | 0.516 | 0.725 | 2.85 | 2.03 | 0.835 | 0.751 | 0.571 | 0.718 | 0.389 | 0.832 | 0.771 | 0.635
18 | RRIHSYRGHLW [VHL_Y112] | 0.799 | 0.641 | 0.392 | 2.9 | 2.21 | 1.46 | 2.16 | 1.93 | 1.47 | 2.9 | 1.91 | 2.59 | 4.65 | 2.69 | 3.28 | 3.66
19 | RRIHSYRGHVW [VHL_Y112_L116V] | 0.578 | 0.25 | 0.396 | 1.56 | 0.733 | 0.486 | 0.899 | 0.965 | 0.559 | 0.99 | 0.861 | 0.736 | 1.35 | 1.12 | 0.848 | 1.04
20 | RSAGKYDVYLI [MECP2_Y120] | 0.651 | 0.539 | 0.579 | 0.885 | 0.525 | 0.77 | 0.433 | 0.717 | 0.555 | 1.06 | 1.31 | 0.878 | 0.987 | 0.412 | 0.587 | 1.8
21 | RTLTHYKSAVK [ASNS_Y555] | 0.934 | 0.83 | 0.545 | 0.532 | 0.678 | 0.411 | 0.35 | 0.545 | 0.312 | 0.813 | 0.35 | 0.5 | 0.801 | 0.702 | 0.563 | 0.588
22 | RTTIHYNFMCN [TP53_Y234_C229R_YF] | 0.884 | 0.657 | 0.624 | 1.33 | 0.908 | 0.808 | 0.648 | 1.11 | 0.668 | 1.46 | 0.527 | 0.54 | 1.29 | 0.609 | 2.01 | 0.514

Second part, led by results:

Row | SH2 binding enrichment (Grb2 SH2) | SH2 binding enrichment (SHP2-C SH2) | SH2 binding enrichment (c-Src SH2) | Sequence | phosphorylation enrichment (AncSZ) | phosphorylation enrichment (EPHB1) | phosphorylation enrichment (EPHB2) | phosphorylation enrichment (FGFR1) | phosphorylation enrichment (FGFR3) | phosphorylation enrichment (Fer (mouse)) | phosphorylation enrichment (Fes) | phosphorylation enrichment (Fyn) | phosphorylation enrichment (Hck) | phosphorylation enrichment (Jak2) | phosphorylation enrichment (MERTK) | phosphorylation enrichment (c-Abl (mouse)) | phosphorylation enrichment (c-Src)
23 | 0.858 | 0.942 | 0.369 | RKELFYKADGE [SERPINC1_Y272] | 1.12 | 0.824 | 0.548 | 0.713 | 0.638 | 0.783 | 1.08 | 0.519 | 0.881 | 0.893 | 0.659 | 0.779 | 0.63
24 | 0.916 | 0.909 | 0.938 | RKQQLYIAMEE [CCDC39_Y593_T594I] | 0.993 | 0.651 | 0.822 | 0.8 | 0.543 | 0.607 | 1.28 | 0.655 | 0.431 | 0.7 | 1 | 0.725 | 0.753
25 | 0.798 | 0.709 | 0.625 | RLEPVYFVAPA [LAMC2_Y250_D247E] | 2.59 | 7.02 | 6.76 | 9.12 | 8.72 | 0.985 | 1.02 | 9.5 | 7.76 | 1.7 | 7.77 | 9.14 | 6.33
26 | 1.14 | 0.547 | 0.522 | RLTEGYTGPFK [ZNF862_Y181_I178T] | 0.519 | 0.323 | 0.41 | 0.364 | 0.456 | 0.382 | 0.611 | 0.473 | 0.509 | 0.625 | 0.402 | 0.426 | 0.423
27 | 0.899 | 0.701 | 0.674 | RQIQSYTCEID [DES_Y331_H326R] | 1.02 | 0.522 | 0.514 | 0.515 | 0.726 | 0.485 | 1.08 | 0.642 | 0.745 | 0.833 | 0.489 | 0.817 | 0.474
28 | 0.918 | 0.765 | 0.61 | RQQEVYLLYKQ [RARRES1_Y159_D158V] | 1.5 | 0.757 | 0.855 | 0.672 | 1.11 | 0.611 | 1.98 | 0.919 | 0.877 | 1.34 | 0.842 | 1.13 | 1.41
29 | 0.901 | 1.13 | 0.433 | RQSHNYLGGFA [SYK_Y47_R45H] | 0.686 | 0.427 | 0.537 | 0.501 | 0.558 | 0.387 | 0.65 | 0.464 | 0.599 | 0.523 | 0.414 | 0.817 | 0.394
30 | 0.707 | 0.627 | 0.466 | RRAKGYPIDLY [ITGB2_Y125] | 1.07 | 0.684 | 0.87 | 0.718 | 0.889 | 0.73 | 1.29 | 0.787 | 1.18 | 1.34 | 1.17 | 0.868 | 1.28
31 | 0.807 | 0.605 | 0.512 | RREWFYEVIIA [BACE1_Y260_V265A_YF] | 0.927 | 0.515 | 0.391 | 0.784 | 0.764 | 0.66 | 0.733 | 0.593 | 0.598 | 0.807 | 1.24 | 0.483 | 0.498
32 | 0.927 | 0.741 | 0.526 | RREWFYEVIIV [BACE1_Y260_YF] | 1.53 | 0.928 | 0.372 | 0.605 | 0.505 | 1.89 | 4.8 | 0.649 | 0.561 | 0.882 | 2.28 | 0.766 | 0.515
33 | 0.692 | 0.461 | 0.323 | RRSQSYNPTSG [PLEKHA2_Y185_I186N] | 0.612 | 0.435 | 0.512 | 0.649 | 0.523 | 0.458 | 0.972 | 0.897 | 0.821 | 0.809 | 0.491 | 0.765 | 0.811
